Assay results as given in patent US20220354929A1, “PEPTIDES AND USES THEREOF” (LATERAL IP PTY LTD, priority 2019, published 2022).
Values joined by “and” are separate entries in the source; they are usually repeats but may differ in a detail not shown here. Equal values may be shown once. “Also recorded” adds a separate entry of the source.

Columns and labels:
[1] = tested on: dorsal root afferent-mediated synaptic inputs to dorsal horn neurones; assay: whole-cell recording in spinal cord slices from Chung models: dorsal root afferent-mediated synaptic inputs (evoked EPSPs/IPSPs); assay type: cell-based, rat; details: for effect on dorsal root-evoked IPSPs (in words): prolactin 500 nM, 0.1 Hz and 5 Hz
Description: (§1) An in vitro spinal cord slice with intact dorsal root afferents combined with single-cell whole-cell patch clamp electrophysiological recording techniques was used to assess the electrophysiological properties of the peptides having the amino acid sequence of SEQ ID NO:2, 3, 4 and 5.
(§2) Chung model rats, aged 8 to 12 weeks, were housed in an air-conditioned room on a 12 hour light/dark cycle with food and water available ad libitum. The rats were terminally anaesthetized using isofluorane and decapitated. The vertebral column, rib cage and surrounding tissues were rapidly removed and pinned under ice-cold (<4° C.), high sucrose-containing artificial cerebrospinal fluid (aCSF) comprising: 127 mM sucrose, 1.9 mM KCl, 1.2 mM KH2PO4, 0.24 mM CaCl2, 3.9 mM MgCl2, 26 mM NaHCO3, 10 mM D-glucose and 0.5 mM ascorbic acid. A laminectomy was performed and the spinal cord and associated roots gently dissected and teased out of the spinal column and surrounding tissues. Dura and pia mater and ventral roots were subsequently removed with fine forceps and the spinal cord hemisected. Care was taken to ensure dorsal root inputs to the spinal cord were maintained. The hemisected spinal cord-dorsal root preparations were secured to a tissue slicer and spinal cord slices (400 to 450 μm thick) with dorsal roots attached were cut in chilled (<4° C.) high sucrose aCSF using a Leica VT1000s microtome.
(§3) Slices were transferred to a small beaker containing ice cold aCSF with 127 mM NaCl, 1.9 mM KCl, 1.2 mM KH2PO4, 1.3 mM MgCl2, 2.4 mM CaCl2, 26 mM NaHCO3 and 10 mM D-glucose, and rapidly warmed to 35° C. ±1° C. in a temperature-controlled water bath over a 20 minute period, then subsequently removed and maintained at room temperature (22° C. ±2° C.) prior to electrophysiological recording. Electrophysiological recording was performed in aCSF comprising 127 mM NaCl, 1.9 mM KCl, 1.2 mM KH2PO4, 1.3 mM MgCl2, 2.4 mM CaCl2, 26 mM NaHCO3 and 10 mM D-glucose.
Whole-cell recordings were performed at 34-35° C. from Lamina I or II neurones in the dorsal horn of the spinal cord slices using Axopatch 1D and/or Multiclamp 700B amplifies and using the “blind” version of the patch-clamp technique.
Patch pipettes were pulled from thin-walled borosilicate glass with resistances of between 3 and 8 MS2 when filled with intracellular solution (140 mM potassium gluconate, 10 mM KCl, 1 mM EGTA-Na, 10 mM HEPES, 4 mM Na2ATP, 0.3 mM Na-GTP). The peptides of SEQ ID NOs:2, 3, 4 or 5 (LAT7771, LAT7772, LAT7773 or LAT7774) were diluted in the tissue bath at a concentration of 5 μM.
A concentric bipolar stimulating electrode was placed appropriately either on the dorsal root or dorsal root entry zone to evoke postsynaptic potentials/currents in recorded cells (see FIG. 1). […] EPSPs/EPSCs were confirmed as monosynaptic on the basis of being characterised by a constant latency and rise-time with few failures.
Recordings were monitored on an oscilloscope and stored on digital audio tapes for later off-line analysis. In addition, data were low-pass filtered at 2-5 kHz, (1 kHz for voltage-clamp data), digitized at 2-10 kHz and stored on a PC running pCLAMP 10 data acquisition software (Axon Instruments). Analysis of electrophysiological data was carried out using Clampfit 10 software.

dorsal horn neurones = assay: whole-cell patch clamp recording in spinal cord slices from Chung models of neuropathic pain: membrane properties of dorsal horn neurones; assay type: cell-based, rat; details: for ΔVm, change in membrane potential: prolactin 500 nM vs rest
Excerpt: as §1
The spinal nerve ligation model (Chung model) was first reported by Kim and Chung (1992; Pain, 50(3):355-63) and involves a single tight ligation of the L5 spinal nerve. […] This model has been used as a “gold standard” model for assessing the efficacy of novel compounds targeting neuropathic pain.
Adult male Sprague-Dawley rats, 8-9 weeks old, weighing 220-250 g at the time of surgery, were purchased from Charles River UK Ltd. The animals were housed in groups of 4 in an air-conditioned room on a 12-hour light/dark cycle. Food and water were available ad libitum. They were allowed to acclimatise to the experimental environment for three days by leaving them on a raised metal mesh for at least 40 min. The baseline paw withdrawal threshold (PWT) was examined using a series of graduated von Frey hairs for 3 consecutive days before surgery and re-assessed on the 6th to 8th day after surgery and on the 12th to 14th day after surgery before drug dosing. Each rat was anaesthetized with 5% isoflurane mixed with oxygen (2L per min) followed by an intramuscular (i.m.) injection of ketamine 90 mg/kg plus xylazine 10 mg/kg. The back was shaved and sterilized with povidone-iodine. The animal was placed in a prone position and a para-medial incision was made on the skin covering the L4-6 level. The L5 spinal nerve was carefully isolated and tightly ligated with 6/0 silk suture. The wound was then closed in layers after a complete hemostasis. A single dose of antibiotics (Amoxipen, 15 mg/rat, i.p.) was routinely given for prevention of infection after surgery. The animals were placed in a temperature-controlled recovery chamber until fully awake before being returned to their home cages.
as §2, §3
Whole-cell recordings were performed at 34-35° C. from Lamina I or II neurones in the dorsal horn of the spinal cord slices using Axopatch 1D and/or Multiclamp 700B amplifies and using the “blind” version of the patch-clamp technique. […]

[2] = peptide 5 μM, responding neurones
[3] = prolactin 500 nM, control = 100

With CRIIHNNNCG [LAT7772] the “effect on dorsal root-evoked EPSPs / excitatory synaptic transmission (in words)” value ([1]; peptide 5 μM, dorsal root stimulation 0.1 Hz) was “suppressed dorsal root-evoked excitatory posts-synaptic potentials (EPSPs) in all neurones tested; also recorded: suppressive effect on EPSPs; also recorded: suppressed dorsal root afferent-mediated excitatory synaptic transmission”, the “effect on membrane potential / postsynaptic membrane properties (in words)” value (dorsal horn neurones; peptide 5 μM) was “overall had little effect on membrane potential; also recorded: small membrane depolarisation in 2 neurones; also recorded: both membrane depolarisations and hyperpolarisations; also recorded: hyperpolarisation” and the “effect on neuronal input resistance (in words)” value (dorsal horn neurones; peptide 5 μM) was “decrease in neuronal input resistance in all 5 neurones; also recorded: significant decrease in neuronal input resistance; also recorded: reduction in neuronal input resistance”. For the same molecule, the “neuronal input resistance, of control” value (dorsal horn neurones; peptide 5 μM) was 60.1±12.3 % of control, the “change in neuronal input resistance” value (dorsal horn neurones; peptide 5 μM vs control) was 149.1±81.7 MS2 and the “ΔIR, change in neuronal input resistance” value (dorsal horn neurones; peptide 5 μM vs control, table prints control minus drug, text the magnitude) was 149.1 MΩ. The “Input Resistance, mean in presence of peptide” value (dorsal horn neurones; peptide 5 μM, all cells) was 172.3 MΩ, the “neuronal input resistance in the presence of peptide” value (dorsal horn neurones; peptide 5 μM, all cells) was 172.3±33.2 MS2 and the “Membrane Potential, mean in presence of peptide” value (dorsal horn neurones; peptide 5 μM, all cells, ipsilateral to injury) was −58.7±4.8 mV and −58.7 mV. For the same molecule, the “Normalised Input Resistance, mean in presence of peptide” value (dorsal horn neurones; peptide 5 μM, control = 100) was 60.1, the “Normalised Input Resistance, ΔIR” value (dorsal horn neurones; peptide 5 μM, control = 100) was 39.9 and the “reversal potential of peptide-induced response (intersection of VI relations)” value (dorsal horn neurones; peptide 5 μM, individual neurones) was “around −78 mV and ~−55 mV and −100 mV and −60 mV and around −60 mV”. For the same molecule, the “membrane depolarisation in individual neurones” value (dorsal horn neurones; [2]) was 12.7 mV, the “membrane hyperpolarisation in individual neurones” value (dorsal horn neurones; [2]) was 3.5 mV and 9.9 mV and the “Normalised Membrane Potential, mean in presence of peptide” value (dorsal horn neurones; peptide 5 μM, rest = 100) was 98.6. The “Normalised Membrane Potential, ΔVm” value (dorsal horn neurones; peptide 5 μM, rest = 100) was 1.4.

B1: Prolactin: native prolactin peptide (e.g., human prolactin of SEQ ID NO:30); parent prolactin protein (protein)
chain: MNIKGSPWKGSLLLLLVSNLLLCQSVAPLPICPGGAARCQVTLRDLFDRAVVLSHYIHNLSSEMFSEFDKRYTHGRGFITKAINSCHTSSLATPEDKEQAQQMNQKDFLSLIVSILRSWNEPLYHLVTEVRGMQEAPEAILSKAVEIEEQTKRLLEGMELIVSQVHPETKENEIYPVWSGLPSLQMADEESRLSAYYNLLHCLRRDSHKIDNYLKLLKCRIIHNNNC
With B1 the “effect on dorsal root-evoked IPSPs (in words)” value [1] was “no effect on IPSPs evoked by dorsal root stimulation in one cell”, the “effect on dorsal root-evoked IPSPs (in words)” value ([1]; listed as prolactin) was “little effect on dorsal root stimulated inhibitory post-synaptic potentials (IPSPs)” and the “Input Resistance, mean in presence of prolactin” value (dorsal horn neurones; prolactin 500 nM) was 637.3 MΩ. The “effect on membrane potential (in words)” value (dorsal horn neurones; prolactin 500 nM) was “principally induced membrane depolarisation”, the “effect on neuronal input resistance (in words)” value (dorsal horn neurones; prolactin 500 nM) was “increase in neuronal input resistance” and the “neuronal input resistance in the presence of prolactin” value (dorsal horn neurones; prolactin 500 nM) was 637.3±301.1 MS2. For the same molecule, the “increase in neuronal input resistance” value (dorsal horn neurones; prolactin 500 nM vs control) was 79.0±60.5 MS2, the “ΔIR, change in neuronal input resistance” value (dorsal horn neurones; prolactin 500 nM vs control) was −79.0 MΩ and the “ΔVm, change in membrane potential” value (dorsal horn neurones) was −2.8 mV. The “ΔVm, change in membrane potential” value (dorsal horn neurones; listed as prolactin) was 2.8±2.0 mV, the “Membrane Potential, mean in presence of prolactin” value (dorsal horn neurones; prolactin 500 nM, all cells) was −52.0 mV and the “Membrane Potential, mean in presence of prolactin” value (dorsal horn neurones; prolactin 500 nM, all cells, listed as prolactin) was −52.0±8.4 mV. For the same molecule, the “Normalised Input Resistance, mean in presence of prolactin” value (dorsal horn neurones; [3]) was 113.9, the “Normalised Input Resistance, ΔIR” value (dorsal horn neurones; [3]) was −13.9 and the “effect on membrane potential (in words)” value (dorsal horn neurones; prolactin 500 nM, listed as prolactin) was “small membrane depolarisation in 2 neurones; also recorded: little effect on a further dorsal horn neurone; also recorded: marginal membrane depolarisation”. The “reversal potential of prolactin-induced depolarisation (VI relations)” value (dorsal horn neurones; prolactin 500 nM, one cell) was “around −90 mV”, the “Normalised Membrane Potential, mean in presence of prolactin” value (dorsal horn neurones; prolactin 500 nM, rest = 100) was 95.8 and the “Normalised Membrane Potential, ΔVm” value (dorsal horn neurones; prolactin 500 nM, rest = 100) was 4.2.
